# Numbering of substitutions follows the chain as printed. No end group written: not given here. *: point of attachment. Biotin = O=C1N[C@H]2[C@H](CS[C@H]2CCCCC(=O)*)N1
# B1: recombinant human Progranulin (Adipogen) (ligand, UniProt P28799 18-593, looked up)
# chain: TRCPDGQFCPVACCLDPGGASYSCCRPLLDKWPTTLSRHLGGPCQVDAHCSAGHSCIFTVSGTSSCCPFPEAVACGDGHHCCPRGFHCSADGRSCFQRSGNNSVGAIQCPDSQFECPDFSTCCVMVDGSWGCCPMPQASCCEDRVHCCPHGAFCDLVHTRCITPTGTHPLAKKLPAQRTNRAVALSSSVMCPDARSRCPDGSTCCELPSGKYGCCPMPNATCCSDHLHCCPQDTVCDLIQSKCLSKENATTDLLTKLPAHTVGDVKCDMEVSCPDGYTCCRLQSGAWGCCPFTQAVCCEDHIHCCPAGFTCDTQKGTCEQGPHQVPWMEKAPAHLSLPDPQALKRDVPCDNVSSCPSSDTCCQLTSGEWGCCPIPEAVCCSDHQHCCPQGYTCVAEGQCQRGSEIVAGLEKMPARRASLSHPRDIGCDQHTSCPVGQTCCPSLGGSWACCQLPHAVCCEDRQHCCPAGYTCNVKARSCEKEVVSAQPATFLARSPHVGVKDVECGEGHFCHDNQTCCRDNRQGWACCPYRQGVCCADRRHCCPAGFRCAARGTKCLRREAPRWDAPLRDPALRQLL
# modifications: biotinylated or DyLight650-labelled in some assays
# notes: also called hPGRN; PGRN
# B2: recombinant mouse Progranulin (Adipogen) (ligand, UniProt P28798 18-589, looked up)
# chain: TQCPDGQFCPVACCLDQGGANYSCCNPLLDTWPRITSHHLDGSCQTHGHCPAGYSCLLTVSGTSSCCPFSKGVSCGDGYHCCPQGFHCSADGKSCFQMSDNPLGAVQCPGSQFECPDSATCCIMVDGSWGCCPMPQASCCEDRVHCCPHGASCDLVHTRCVSPTGTHTLLKKFPAQKTNRAVSLPFSVVCPDAKTQCPDDSTCCELPTGKYGCCPMPNAICCSDHLHCCPQDTVCDLIQSKCLSKNYTTDLLTKLPGYPVKEVKCDMEVSCPEGYTCCRLNTGAWGCCPFAKAVCCEDHIHCCPAGFQCHTEKGTCEMGILQVPWMKKVIAPLRLPDPQILKSDTPCDDFTRCPTNNTCCKLNSGDWGCCPIPEAVCCSDNQHCCPQGFTCLAQGYCQKGDTMVAGLEKIPARQTTPLQIGDIGCDQHTSCPVGQTCCPSLKGSWACCQLPHAVCCEDRQHCCPAGYTCNVKARTCEKDVDFIQPPVLLTLGPKVGNVECGEGHFCHDNQTCCKDSAGVWACCPYLKGVCCRDGRHCCPGGFHCSARGTKCLRKKIPRWDMFLRDPVPRPLL
# modifications: biotinylated
# notes: also called mPGRN; Bio-mPGRN
# B3: S-15 (antibody, V domains shown)
# VH: QVQLVQSGAEVKKPGASVKVSCKASGYTFTSYYMSWVRQAPGQGLEWMGIINPSGGSTSYAQKFQGRVTMTRDTSTSTVYMELSSLRSEDTAVYYCARDPSGIAAAGPASRYYYGMDVWGQGTTVTVSS
# VL: EIVMTQSPATLSVSPGERATLSCRASQSVSSNLAWYQQKPGQAPRLLIYGASTRATGIPARFSGSGSGTEFTLTISSLQSEDFAVYYCQQARLGPWTFGGGTKVEIK
# notes: IgG
# B4: S-22 (antibody, V domains shown)
# VH: QVQLVQSGAEVKKPGSSVKVSCKASGGTFSSYAISWVRQAPGQGLEWMGGIIPIFGTASYAQKFQGRVTITADESTSTAYMELSSLRSEDTAVYYCARQGRKTGYYYYYGMDVWGQGTTVTVSS
# VL: DIQMTQSPSTLSASVGDRVTITCRASQSISSWLAWYQQKPGKAPKLLIYKASSLESGVPSRFSGSGSGTEFTLTISSLQPDDFATYYCQQADGHITFGGGTKVEIK
# notes: IgG
# B5: S-2 (antibody, V domains shown)
# VH: not shown
# VL: DIQMTQSPSSLSASVGDRVTITCRASQSISSYLNWYQQKPGKAPKLLIYAASSLQSGVPSRFSGSGSGTDFTLTISSLQPEDFATYYCQQSDVSPITFGGGTKVEIK
# notes: IgG; also called S-02
# B6: S-14 (antibody, V domains shown)
# VH: B3 VH
# VL: B5 VL with A50G, S91H, D92Y, S94G, I96F
# notes: IgG
# B7: S-2-1 Fab (Fab, V domains shown)
# VH: QVQLVQSGAEVKKPGASVKVSCKASGYTFGAYYMHWVRQAPGQGLEWMGWINPNSGFTRYAQKFQGRVTMTRDTSISTAYMELSRLRSDDTAVYYCARGKRSSGWYEGYGMDVWGQGTTVTVSS
# VL: B5 VL
# notes: Fab by papain digestion of the IgG
# Tests used:
# [1] = molecular target: T1, mouse Sortilin expressed on 293 / HEK293T cells (mouse, UniProt Q6PHU5 74-825); assay: FACS, time course of binding and endocytosis of human PGRN-DyLight650 by HEK293T cells expressing mouse Sortilin
# T1 construct: full-length recombinant mouse Sortilin; also called mSort; msSort
# [2] = molecular target: T2, recombinant human Sortilin, His-tagged (R&D Systems) (human, UniProt Q99523 78-755); assay: Biacore SPR, His-captured Sortilin
# T2 construct: bought; whole entry named; also called His-captured SORT1
# [3] = molecular target: T2, recombinant human Sortilin, His-tagged …; assay: ELISA, biotinylated PGRN on immobilized Sortilin
# [4] = molecular target: T3, recombinant mouse Sortilin (R&D Systems) (mouse, UniProt Q6PHU5 74-754, limits assumed); assay: ELISA, biotinylated PGRN on immobilized Sortilin
# T3 construct: bought; also called mouse SORT1
# [5] = molecular target: T4, biotinylated human Sortilin monomer (human, UniProt Q99523 78-755, limits assumed, biotinylated (Sulfo-NHS-biotin)); assay: ForteBio, peptide format: human Sortilin monomer (100 nM) on biotinylated PGRN peptide on SA sensors
# T4 construct: monomer cut from the Fc fusion with IdeS; used unbiotinylated in solution in some formats; also called Bt-hSort; b-H Sort
# Description: SA sensors were soaked in PBS for 10 min prior to analysis. […] The data was prepared for analysis with ForteBio Data Analysis Software version 8.1.0.36 as follows. The data was y-axis aligned and inter-step corrected to the beginning of the Sortilin capture step and then cropped to show only the Sortilin capture and antibody interaction steps.
# [6] = molecular target: T5, human Sortilin expressed on 293 / HEK293T cells (human, UniProt Q99523 78-830); assay: FACS, 293 cells;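 also: antibodies at 10 µg/ml bound to cells for 1 h on ice, detected with PE-labelled anti-human secondary antibody by flow cytometry, reported as mean fluorescence intensity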
# T5 construct: full-length recombinant human Sortilin; also called hSort; SORT1
# Description: (§1) Cells were harvested, plated at 10⁵/ml in a 96 well plate, washed, and incubated in 100 μl PBS containing 10 μg/ml Mab and 2% FBS for 1 hour in ice. Cells were then washed twice and incubated in 100 μl PBS+2% FBS containing 5 μg/ml PE-conjugated anti-human secondary antibody for 30 minutes in ice. Cells were washed twice in cold PBS and data was acquired on a BD FACS Canto. Data analysis and calculation of MFI values was performed with FlowJo (TreeStar) software version 10.0.7.
# [7] = molecular target: T1, mouse Sortilin expressed on 293 / …; assay: FACS, 293 cells;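 also: antibodies at 10 µg/ml bound to cells for 1 h on ice, detected with PE-labelled anti-human secondary antibody by flow cytometry, reported as mean fluorescence intensity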
# Description: as §1
# [8] = molecular target: T5, human Sortilin expressed on 293 / …; assay: cell binding, HEK293T, FACS
# [9] = molecular target: T1, mouse Sortilin expressed on 293 / …; assay: cell binding, HEK293T, FACS
# [10] = molecular target: T6, human Sortilin Fc fusion protein (human, UniProt Q99523 78-755); assay: ForteBio, avid;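 also: whole IgG captured on AHQ sensors, then contacted with Sortilin Fc fusion antigen at 100 nM, followed by an off-rate phase in buffer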
# T6 construct: whole entry named; also called hSort-Fc
# Description: (§2) The affinity for the Sortilin antibodies was determined by measuring their KD by ForteBio. […] Briefly, ForteBio affinity measurements were performed by loading IgGs on-line onto AHQ sensors. Sensors were equilibrated off-line in assay buffer for 30 min and then monitored on-line for 60 seconds for baseline establishment. For avid binding measurement, sensors with loaded IgGs were exposed to 100 nM antigen (human or mouse Sortilin Fc fusion) for 3, afterwards they were transferred to assay buffer for 3 min for off-rate measurement.
# (§3) The binding affinity of each anti-Sortilin antibody was determined by measuring their KD by ForteBio or MSD-SET at room temperature. […] Briefly, ForteBio affinity measurements were performed by loading IgGs on-line onto AHQ sensors. Sensors were equilibrated off-line in assay buffer for 30 min and then monitored on-line for 60 seconds for baseline establishment. Sensors with loaded IgGs were exposed to 100 nM antigen for 5 minutes, then transferred to assay buffer for 5 min for off-rate measurement. Kinetics were analyzed using the 1:1 binding model.
# [11] = molecular target: T7, mouse Sortilin Fc fusion protein (mouse; human, UniProt Q6PHU5 74-754); assay: ForteBio, avid;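 also: whole IgG captured on AHQ sensors, then contacted with Sortilin Fc fusion antigen at 100 nM, followed by an off-rate phase in buffer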
# T7 construct: whole entry named; also called mSort-Fc
# Description: as §2, §3
# [12] = molecular target: T4, biotinylated human Sortilin monomer; assay: ForteBio, avidity, biotinylated human Sortilin on sensor
# [13] = molecular target: T4, biotinylated human Sortilin monomer; assay: ForteBio, Fab
# Description: The affinity of the anti-Sortilin antibodies was determined by measuring their KD by ForteBio and MSD. […] Briefly, ForteBio affinity measurements were performed by loading immunoglobulins (IgGs) on-line onto AHQ sensors. Sensors were equilibrated off-line in assay buffer for 30 min and then monitored on-line for 60 seconds for baseline establishment. For avid binding measurement, sensors with loaded IgGs were exposed to 100 nM antigen (human or mouse Sortilin Fc fusion) for 3 min, afterwards they were transferred to assay buffer for 3 min for off-rate measurement. […] Monovalent binding measurements were obtained by loading human or mouse Sortilin Fc fusion antigens to AHQ sensor and followed by exposure to −100 nM Sortilin antibody Fab. […] Kinetics data were fit using a 1:1 binding model in the data analysis software provided by ForteBio.
# [14] = molecular target: T8, biotinylated mouse Sortilin monomer (mouse, UniProt Q6PHU5 74-754, limits assumed, biotinylated); assay: MSD-SET, Fab
# T8 construct: also called Bt-msSort
# Description: (§4) Antibodies (20 nM in PBS) were coated onto standard bind MSD-ECL plates overnight at 4° C. or at room temperature for 30 min. Plates were then blocked with 1% BSA for 30 min with shaking at 700 rpm, followed by three washes with wash buffer (PB SF+0.05% Tween 20). SET samples were applied and incubated on the plates for 150 s with shaking at 700 rpm followed by one wash. Antigen captured on a plate was detected with 250 ng/ml sulfotag-labeled streptavidin in PBSF by incubation on the plate for 3 min. The plates were washed three times with wash buffer and then read on the MSD Sector Imager 2400 instrument using 1× Read Buffer T with surfactant. The percent free antigen was plotted as a function of titrated antibody in Prism and fit to a quadratic equation to extract the KD. To improve throughput, liquid handling robots were used throughout MSD-SET experiments, including SET sample preparation.
# [15] = molecular target: T4, biotinylated human Sortilin monomer; assay: MSD-SET, Fab; MSD, Fab, monovalent biotinylated human Sortilin
# Description: as §4
Binder,MFI [6],MFI [7],Kd [8] [nM],Kd [9] [nM],Kd [10] [nM],Kd [11] [nM],other results
B1,–,–,–,–,–,–,binding result [1]: binds; Kd [2]: 14.3 nM; Kd [3]: 14 nM
B2,–,–,–,–,–,–,Kd [4]: 40 nM
Biotin-TKCLRREAPRWDAPLRDPALRQLL (also called hPGRN peptide) [biotinylated Progranulin C-terminal peptide],–,–,–,–,–,–,binding result [5]: binds
B3,8740,17600,3.3,6.4,2.3,1.4,–
B4,8940,23200,2.4,5,0.99,1.12,–
B5,8430,22400,1.1,6.6,0.517,1.07,–
B6,8010,16500,–,–,5.74,2.74,Kd [12]: 0.8 nM
B7,–,–,–,–,–,–,Kd [13]: 0.614 nM; Kd [14]: 0.73 nM; Kd [15]: 0.029 nM

# Source: patent publication US20220185898A1 (Alector, published 2022)
